{"source": "patent US20260176352A1", "about": "(BIRD ROCK BIO, published 2026)", "key": {"[1]": {"molecular_target": "T1, native full length human CB1 receptor (cannabinoid 1 receptor) (human, UniProt P21554 1-472)", "T1 sequence (P21554 whole entry)": "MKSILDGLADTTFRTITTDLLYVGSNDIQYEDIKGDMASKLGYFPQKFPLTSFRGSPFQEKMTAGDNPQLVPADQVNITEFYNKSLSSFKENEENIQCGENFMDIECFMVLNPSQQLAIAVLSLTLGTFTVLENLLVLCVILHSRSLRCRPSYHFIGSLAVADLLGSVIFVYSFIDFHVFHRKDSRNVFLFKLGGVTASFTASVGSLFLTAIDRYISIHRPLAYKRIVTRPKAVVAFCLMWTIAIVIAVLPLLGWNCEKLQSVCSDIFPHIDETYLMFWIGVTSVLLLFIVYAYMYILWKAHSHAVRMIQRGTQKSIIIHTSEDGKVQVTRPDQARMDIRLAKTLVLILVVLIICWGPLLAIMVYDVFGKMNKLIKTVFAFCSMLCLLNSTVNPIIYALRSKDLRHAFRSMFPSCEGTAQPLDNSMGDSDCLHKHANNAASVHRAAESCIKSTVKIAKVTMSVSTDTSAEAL", "test": "cell-based or functional assay"}, "mouse CB1": {"molecular_target": "T2, mouse CB1 (mouse, UniProt P47746 1-473)", "T2 construct": "whole, on cells; also called TRexCHO Mouse CB1", "T2 sequence (P47746 whole entry)": "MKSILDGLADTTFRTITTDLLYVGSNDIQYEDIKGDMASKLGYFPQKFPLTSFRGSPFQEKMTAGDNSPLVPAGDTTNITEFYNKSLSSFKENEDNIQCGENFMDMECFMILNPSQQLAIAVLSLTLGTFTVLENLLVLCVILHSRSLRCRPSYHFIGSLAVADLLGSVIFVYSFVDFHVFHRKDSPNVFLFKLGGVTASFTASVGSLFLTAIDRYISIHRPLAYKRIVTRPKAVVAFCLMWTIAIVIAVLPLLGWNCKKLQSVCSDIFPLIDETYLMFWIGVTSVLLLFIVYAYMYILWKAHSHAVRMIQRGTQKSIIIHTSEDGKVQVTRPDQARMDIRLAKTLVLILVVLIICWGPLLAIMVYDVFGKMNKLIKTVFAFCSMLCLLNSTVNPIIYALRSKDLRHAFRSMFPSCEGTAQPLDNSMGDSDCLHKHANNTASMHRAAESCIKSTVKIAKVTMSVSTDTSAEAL", "test": "flow cytometry on cells expressing the target"}, "human CB2": {"molecular_target": "T3, human CB2 (human, UniProt P34972 1-360)", "T3 construct": "whole, on cells; also called TRexCHO Human CB2", "T3 sequence (P34972 whole entry)": "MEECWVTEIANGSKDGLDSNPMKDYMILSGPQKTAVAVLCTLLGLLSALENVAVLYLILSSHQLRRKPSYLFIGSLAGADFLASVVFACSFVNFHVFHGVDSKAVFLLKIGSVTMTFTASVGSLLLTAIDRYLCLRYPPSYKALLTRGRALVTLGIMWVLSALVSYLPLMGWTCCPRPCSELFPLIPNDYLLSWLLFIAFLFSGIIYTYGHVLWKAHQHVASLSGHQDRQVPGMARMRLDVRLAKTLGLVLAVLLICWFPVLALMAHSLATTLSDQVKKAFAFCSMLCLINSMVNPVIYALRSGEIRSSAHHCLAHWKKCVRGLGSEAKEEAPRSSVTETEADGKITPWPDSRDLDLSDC", "test": "flow cytometry on cells expressing the target"}, "[2]": {"molecular_target": "5HT2B (expression cell line) (Homo sapiens (Human), UniProt P41595 1-481)", "sequence (P41595 whole entry)": "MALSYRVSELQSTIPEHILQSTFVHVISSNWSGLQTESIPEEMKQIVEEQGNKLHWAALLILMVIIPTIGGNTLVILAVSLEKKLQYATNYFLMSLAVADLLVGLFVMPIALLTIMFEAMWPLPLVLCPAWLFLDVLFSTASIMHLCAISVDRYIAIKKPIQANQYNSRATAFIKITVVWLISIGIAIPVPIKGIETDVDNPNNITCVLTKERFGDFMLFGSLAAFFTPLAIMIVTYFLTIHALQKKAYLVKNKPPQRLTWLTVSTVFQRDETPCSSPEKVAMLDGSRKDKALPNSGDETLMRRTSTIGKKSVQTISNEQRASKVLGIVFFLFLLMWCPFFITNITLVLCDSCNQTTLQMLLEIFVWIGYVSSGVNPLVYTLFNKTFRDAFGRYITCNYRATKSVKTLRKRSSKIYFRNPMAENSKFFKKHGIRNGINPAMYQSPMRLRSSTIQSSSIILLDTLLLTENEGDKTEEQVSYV", "test": "flow cytometry on cells expressing the target"}, "[3]": {"molecular_target": "T1, native full length human CB1 receptor …", "test": "flow cytometry, Fab on TRex-CHO human CB1 cells", "description": "Three-fold serial dilutions from 3 μM to 0.1 μM were prepared."}}, "data": [{"binder": "PA13R3-P1C4 Fab (Fab, V domains shown, also called Chimeric P1C4 Fab) VH: EVQLQQSGAELVRPGVSVKISCKASGYEFSYYWMNWVKQRPGQGLEWIGQIYPGDGETKYNGKFKGKATLTADKSSNTAYMQLSSLTSEDSAVYFCARSHGNYLPYWGQGTLVTVSA VL: DIVLTQSPAIMSASLGERVTMTCTASSSVSSSYLHWYQQKPGSSPKLWIYSTSNLASGVPARFSGSGSGTSYSLTISSMEAEDAATYYCHQYHRSPPTFGAGTKLELK", "values": [{"measurement": "IC50 cAMP assay", "setting": "[1]", "result": 427, "unit": "nM"}, {"measurement": "binding result", "setting": "mouse CB1", "result": "no binding (tested: 1 µM)"}, {"measurement": "binding result", "setting": "human CB2", "result": "no binding (tested: 1 µM)"}, {"measurement": "binding result", "setting": "[2]", "result": "no binding (tested: 1 µM)"}, {"measurement": "Kd", "setting": "[3]", "result": 130, "unit": "nM"}]}]}
